In one assay the target is Msn5 (Kap142) (UniProt P52918). Kind of assay: fluorescence polarization titration, mNeonG-pPho4. Conditions: reference: wild-type pPho4; sites S114. On the technique in general: Polarisation of emitted light reports the rotation of a fluorescent probe.
Assay [1] addresses Pho4_(1-200) S114/128DD and Pho4_(1-200) S114/128EE. Nature of the assay: fluorescence polarisation.
Assay [2] addresses T1, Msn5 (S. cerevisiae exportin), wild type (S. cerevisiae, UniProt P52918 1-1224).
T1 sequence: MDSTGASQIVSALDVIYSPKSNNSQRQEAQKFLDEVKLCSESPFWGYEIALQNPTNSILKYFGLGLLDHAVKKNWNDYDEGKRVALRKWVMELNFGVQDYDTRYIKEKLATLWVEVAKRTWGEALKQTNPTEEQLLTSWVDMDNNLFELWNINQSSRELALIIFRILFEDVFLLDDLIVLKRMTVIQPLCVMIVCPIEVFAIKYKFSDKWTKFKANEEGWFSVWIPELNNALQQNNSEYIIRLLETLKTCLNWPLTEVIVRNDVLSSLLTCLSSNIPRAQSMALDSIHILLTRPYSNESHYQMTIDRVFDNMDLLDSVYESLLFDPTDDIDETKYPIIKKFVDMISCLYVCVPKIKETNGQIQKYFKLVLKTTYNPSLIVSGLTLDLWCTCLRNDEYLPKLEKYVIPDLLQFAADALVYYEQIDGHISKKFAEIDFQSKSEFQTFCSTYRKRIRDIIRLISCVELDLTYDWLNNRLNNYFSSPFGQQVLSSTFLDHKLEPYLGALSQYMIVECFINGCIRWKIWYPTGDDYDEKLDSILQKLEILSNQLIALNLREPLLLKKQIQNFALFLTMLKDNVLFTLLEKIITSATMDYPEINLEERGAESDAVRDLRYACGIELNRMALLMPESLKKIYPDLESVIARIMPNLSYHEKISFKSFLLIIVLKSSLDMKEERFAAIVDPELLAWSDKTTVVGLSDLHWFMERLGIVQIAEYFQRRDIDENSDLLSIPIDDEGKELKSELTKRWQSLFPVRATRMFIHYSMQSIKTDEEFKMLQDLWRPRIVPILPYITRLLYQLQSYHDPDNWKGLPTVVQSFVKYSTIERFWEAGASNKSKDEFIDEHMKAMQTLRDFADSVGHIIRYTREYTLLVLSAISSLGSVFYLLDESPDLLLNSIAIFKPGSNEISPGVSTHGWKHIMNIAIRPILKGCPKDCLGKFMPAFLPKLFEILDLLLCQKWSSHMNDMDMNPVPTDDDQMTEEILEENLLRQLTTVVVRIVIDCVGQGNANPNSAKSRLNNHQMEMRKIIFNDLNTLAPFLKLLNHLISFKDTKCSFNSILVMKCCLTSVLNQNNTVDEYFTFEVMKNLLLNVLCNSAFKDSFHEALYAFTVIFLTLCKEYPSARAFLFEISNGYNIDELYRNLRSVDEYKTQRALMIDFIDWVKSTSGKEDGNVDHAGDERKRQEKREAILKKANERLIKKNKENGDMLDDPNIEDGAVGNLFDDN
Nature of the assay: fluorescence polarisation.

The target of another assay is T2, Msn5 RRAA (R393A, R458A) (S. cerevisiae, UniProt P52918 1-1224, RRAA (R393) | RRAA (R458)).
T2 sequence: T1 sequence with R393A, R458A
Kind of assay: fluorescence polarisation.

Assay [3] deals with T1, Msn5 (S. cerevisiae exportin), wild type. Kind of assay: cryo-EM structure.

Positions count from the first letter of the chain named. Names may count otherwise. “And” between values parts separate entries of the source, which are not always exact repeats. Equal values may be shown once.

For orientation: Kd means the concentration at which binding is half-saturated. Low readings indicate a tighter complex, high ones a looser complex.

As to “Pho4 3-200 (from UniProt P07270) pPho4 S114A”, the KD result in the assay with Msn5 (Kap142) was “weaker; reference 44[26,71]”.

B1: Msn5 (S. cerevisiae exportin), wild type (natural protein)
chain: T1 sequence
B1: in assay [1], the Kd lay within 2000 to 3000 nM.

B2: mNeonGreen-Pho4_(3-200), unphosphorylated (domain or fragment)
chain: RTTSEGIHGFVDDLEPKSSILDKVGDFITVNTKRHDGREDFNEQNDELNSQENHNSSENGNENENEQDSLALDDLDRAFELVEGMDMDWMMPSHAHHSPATTATIKPRLLYSPLIHTQSAVPVTISPNLVATATSTTSANKVTKNKSNSSPYLNKRRGKPGPDSATSLFELPDSVIPTPKPKPKPKQYPKVILPSNST
In the case of B2, binding in assay [2] was put at a Kd of 2400 nM.

B3: mNeonGreen-pPho4_(3-200), wild type, phosphorylated (domain or fragment)
chain: B2 chain
modifications: phosphorylated in vitro by Pho80-Pho85: pS100, pS114, pS128, pS152
Turning to B3, the Kd is 20 nM and 44 nM and 25 nM in assay [2]; 2200 nM with Msn5 RRAA (R393A, R458A).

B4: pPho4_(1-200), phosphorylated, GST removed (domain or fragment)
chain: MGRTTSEGIHGFVDDLEPKSSILDKVGDFITVNTKRHDGREDFNEQNDELNSQENHNSSENGNENENEQDSLALDDLDRAFELVEGMDMDWMMPSHAHHSPATTATIKPRLLYSPLIHTQSAVPVTISPNLVATATSTTSANKVTKNKSNSSPYLNKRRGKPGPDSATSLFELPDSVIPTPKPKPKPKQYPKVILPSNST
modifications: phosphorylated in vitro by Pho80-Pho85: pS100, pS114, pS128, pS152 (pS114 and pS128 seen in the structure)
Take B4: in assay [3], the binding result is “binds”.

B5: mNeonGreen-pPho4_(3-200) S114/128AA (domain or fragment)
chain: B2 chain with S112A, S126A
modifications: phosphorylated in vitro by Pho80-Pho85: pS100, pS152
For B5, binding in assay [2] was characterised by a dissociation constant (Kd) of 1000 nM.

B6: mNeonGreen-pPho4_(3-200) R2mut (domain or fragment)
chain: B2 chain with Y111G, L114G, I115G, H116S, T117G
modifications: phosphorylated in vitro by Pho80-Pho85: pS100, pS114, pS128, pS152
In assay [2], B6 showed a dissociation constant Kd of 800 nM.

B7: mNeonGreen-pPho4_(3-200) S100/152AA (domain or fragment)
chain: B2 chain with S98A, S150A
modifications: phosphorylated in vitro by Pho80-Pho85: pS114, pS128
In turn, B7 came in with a Kd in assay [2] of 46 nM.

B8: mNeonGreen-pPho4_(3-200) S114A (domain or fragment)
chain: B2 chain with S112A
modifications: phosphorylated in vitro by Pho80-Pho85: pS100, pS128, pS152
Take B8: the Kd in assay [2] worked out at 250 nM. This Kd is about 5.4-fold higher than that of the molecule before.

B9: mNeonGreen-pPho4_(3-200) R3mut (domain or fragment)
chain: B2 chain with A120G, V121G, P122S, V123G, T124G, I125S
modifications: phosphorylated in vitro by Pho80-Pho85: pS100, pS114, pS128, pS152
Turning to B9, the dissociation constant Kd in assay [2] is 280 nM.

B10: mNeonGreen-pPho4_(3-200) 102–107GKK (domain or fragment)
chain: B2 chain with A100G, T101K, T102K, A103G, T104K, I105K
modifications: phosphorylated in vitro by Pho80-Pho85: pS100, pS114, pS128, pS152
In assay [2], B10 had a Kd of 110 nM. Against the preceding molecule, the Kd is about 2.5-fold lower.

B11: mNeonGreen-pPho4_(3-200) S128A (domain or fragment)
chain: B2 chain with S126A
modifications: phosphorylated in vitro by Pho80-Pho85: pS100, pS114, pS152
Turning to B11, in assay [2], the Kd is 120 nM.

B12: mNeonGreen-pPho4_(3-200) R4mut (L131A/T134A) (domain or fragment)
chain: B2 chain with L129A, T132A
modifications: phosphorylated in vitro by Pho80-Pho85: pS100, pS114, pS128, pS152
On to B12, for which the affinity in assay [2], expressed as Kd, was 150 nM.
